Where a chain is given by its changes, count along the chain named. Numbers in names are those of the source. Where “and” joins values, the source holds several entries; their conditions need not be identical. Equal entries are not always repeated.
B1: KB001 mouse Fab VL T52A (Fab, V domains shown)
VH: EVQLKQSGPGLVAPSQSLSITCTVSGFSLSIYSVHWVRQPPGKGLEWLGMIWGGGSSDYNSALKSRLSISKDNSKSQVFLKMNSLQTDDTAMYYCARNGNFYAMDYWGQGTSVTVSS
VL: QIVLTQSPAIMSASLGERVTMTCTASSSVSSSFLHWYQQKPGSSPQLWIYSASNLASGVPARFSGSGSGTSYSLTISSMEAEDAATYYCHQYHHSPYIYTFGGGTKLEIK
B2: KB001 mouse Fab VL T100Q (Fab, V domains shown)
VH: B1 VH
VL: B1 VL with A52T, T100Q
B3: KB001 mouse Fab VL T100E (Fab, V domains shown)
VH: B1 VH
VL: B1 VL with A52T, T100E
B4: KB001 mouse Fab VL T100R (Fab, V domains shown)
VH: B1 VH
VL: B1 VL with A52T, T100R
B5: KB001 mouse Fab VL L55N (Fab, V domains shown)
VH: B1 VH
VL: B1 VL with A52T, L55N
B6: KB001 mouse Fab VL S57G (Fab, V domains shown)
VH: B1 VH
VL: B1 VL with A52T, S57G
B7: KB001 mouse Fab VL Y97E (Fab, V domains shown)
VH: B1 VH
VL: B1 VL with A52T, Y97E
B8: KB001 mouse Fab VL S57P (Fab, V domains shown)
VH: B1 VH
VL: B1 VL with A52T, S57P
B9: KB001 mouse Fab VL N54S (Fab, V domains shown)
VH: B1 VH
VL: B1 VL with A52T, N54S
B10: KB001 mouse Fab VL S57N (Fab, V domains shown)
VH: B1 VH
VL: B1 VL with A52T, S57N
B11: KB001 mouse Fab VL S57Q (Fab, V domains shown)
VH: B1 VH
VL: B1 VL with A52T, S57Q
B12: KB001 mouse Fab VL S53K (Fab, V domains shown)
VH: B1 VH
VL: B1 VL with A52T, S53K
B13: KB001 mouse Fab VL T100Y (Fab, V domains shown)
VH: B1 VH
VL: B1 VL with A52T, T100Y
B14: KB001 mouse Fab VL T100H (Fab, V domains shown)
VH: B1 VH
VL: B1 VL with A52T, T100H
B15: KB001 mouse Fab VL S57T (Fab, V domains shown)
VH: B1 VH
VL: B1 VL with A52T, S57T
B16: KB001 mouse Fab VL S95Q (Fab, V domains shown)
VH: B1 VH
VL: B1 VL with A52T, S95Q
B17: KB001 mouse Fab VL T52S (Fab, V domains shown)
VH: B1 VH
VL: B1 VL with A52S
B18: KB001 mouse Fab VL N54Q (Fab, V domains shown)
VH: B1 VH
VL: B1 VL with A52T, N54Q
B19: KB001 mouse Fab VL T100G (Fab, V domains shown)
VH: B1 VH
VL: B1 VL with A52T, T100G
B20: KB001 mouse Fab VL H90W (Fab, V domains shown)
VH: B1 VH
VL: B1 VL with A52T, H90W
B21: KB001 mouse Fab VL N54R (Fab, V domains shown)
VH: B1 VH
VL: B1 VL with A52T, N54R
B22: KB001 mouse Fab VL T100F (Fab, V domains shown)
VH: B1 VH
VL: B1 VL with A52T, T100F
B23: KB001 mouse Fab VL S53Q (Fab, V domains shown)
VH: B1 VH
VL: B1 VL with A52T, S53Q
B24: KB001 mouse Fab VL S53H (Fab, V domains shown)
VH: B1 VH
VL: B1 VL with A52T, S53H
B25: KB001 mouse Fab VL S57R (Fab, V domains shown)
VH: B1 VH
VL: B1 VL with A52T, S57R
B26: KB001 mouse Fab VL S53N (Fab, V domains shown)
VH: B1 VH
VL: B1 VL with A52T, S53N
B27: KB001 mouse Fab VL S57E (Fab, V domains shown)
VH: B1 VH
VL: B1 VL with A52T, S57E
B28: KB001 mouse Fab VL L55P (Fab, V domains shown)
VH: B1 VH
VL: B1 VL with A52T, L55P
B29: KB001 mouse Fab VL T100W (Fab, V domains shown)
VH: B1 VH
VL: B1 VL with A52T, T100W

biological target: HRgpA-6H (Porphyromonas gingivalis) (UniProt P28784); test: ELISA, coated HRgpA-6H

With B1 as the binder, how does the Ratio OD(Variant)/OD(WT) read?
The Ratio OD(Variant)/OD(WT) was 1.17 and 1.08 (2×) and 0.993.

With B2 as the binder, how does the OD450 nm read?
Its OD450 nm is 0.586 and 0.596 and 0.604.

What about the Ratio OD(Variant)/OD(WT) of the same binder?
The Ratio OD(Variant)/OD(WT) was 1.12 and 1.14 and 1.15.

B3 was tested. Which OD450 nm did it give?
Its OD450 nm is 0.613 and 0.621 and 0.674.

What about the Ratio OD(Variant)/OD(WT) of the same binder?
Its Ratio OD(Variant)/OD(WT) is 1.17 and 1.19 and 1.29.

How did the OD450 nm turn out when B4 was run?
The OD450 nm was 0.616.

What about the Ratio OD(Variant)/OD(WT) of the same binder?
The Ratio OD(Variant)/OD(WT) was 1.18.

What does the source list for B5?
OD450 nm: 0.816 and 0.815 and 0.777; Ratio OD(Variant)/OD(WT): 1.04 (2×) and 0.992

How did the OD450 nm turn out when B6 was run?
The OD450 nm was 0.873 and 0.825.

And the Ratio OD(Variant)/OD(WT)?
The Ratio OD(Variant)/OD(WT) was 1.07 and 1.01.

Which results are given for B7?
OD450 nm: 0.793; Ratio OD(Variant)/OD(WT): 1

What does the source list for B8?
OD450 nm: 0.858; Ratio OD(Variant)/OD(WT): 1.05

What does the source list for B9?
OD450 nm: 0.835 and 0.732 and 0.776; Ratio OD(Variant)/OD(WT): 1.07 and 0.934 and 0.99

Which results are given for B10?
OD450 nm: 0.857; Ratio OD(Variant)/OD(WT): 1.05

Which results are given for B11?
OD450 nm: 0.858 and 0.838; Ratio OD(Variant)/OD(WT): 1.05 and 1.03

Which results are given for B12?
OD450 nm: 0.841; Ratio OD(Variant)/OD(WT): 1.07

Which results are given for B13?
OD450 nm: 0.546; Ratio OD(Variant)/OD(WT): 1.04

B14 was tested. Which OD450 nm did it give?
Its OD450 nm is 0.597 and 0.631.

What about the Ratio OD(Variant)/OD(WT) of the same binder?
The Ratio OD(Variant)/OD(WT) was 1.14 and 1.21.

Which results are given for B15?
OD450 nm: 0.843; Ratio OD(Variant)/OD(WT): 1.03

B16 was tested. Which OD450 nm did it give?
The OD450 nm was 0.931 and 0.936 and 0.927.

What about the Ratio OD(Variant)/OD(WT) of the same binder?
Its Ratio OD(Variant)/OD(WT) is 1.01 (2×) and 1.02.

B17 was tested. Which OD450 nm did it give?
Its OD450 nm is 0.833.

And the Ratio OD(Variant)/OD(WT)?
The Ratio OD(Variant)/OD(WT) was 1.06.

Which OD450 nm does the source give for B18 here?
The OD450 nm was 0.868.

And the Ratio OD(Variant)/OD(WT)?
The Ratio OD(Variant)/OD(WT) was 1.11.

Which results are given for B19?
OD450 nm: 0.603 and 0.597; Ratio OD(Variant)/OD(WT): 1.15 and 1.14

What does the source list for B20?
OD450 nm: 0.913; Ratio OD(Variant)/OD(WT): 1.06

How did the OD450 nm turn out when B21 was run?
Its OD450 nm is 0.876.

What about the Ratio OD(Variant)/OD(WT) of the same binder?
The Ratio OD(Variant)/OD(WT) was 1.12.

Which OD450 nm does the source give for B22 here?
The OD450 nm was 0.552.

What about the Ratio OD(Variant)/OD(WT) of the same binder?
The Ratio OD(Variant)/OD(WT) was 1.05.

For B23, which OD450 nm is on record?
The OD450 nm was 0.835 and 0.751 and 0.726.

What about the Ratio OD(Variant)/OD(WT) of the same binder?
The Ratio OD(Variant)/OD(WT) was 1.06 and 0.954 and 0.922.

For B24, which OD450 nm is on record?
Its OD450 nm is 0.827 and 0.777.

What about the Ratio OD(Variant)/OD(WT) of the same binder?
Its Ratio OD(Variant)/OD(WT) is 1.05 and 0.987.

With B25 as the binder, how does the OD450 nm read?
Its OD450 nm is 0.845 and 0.849.

And the Ratio OD(Variant)/OD(WT)?
Its Ratio OD(Variant)/OD(WT) is 1.04.

What does the source list for B26?
OD450 nm: 0.838 and 0.707; Ratio OD(Variant)/OD(WT): 1.06 and 0.898

What does the source list for B27?
OD450 nm: 0.843; Ratio OD(Variant)/OD(WT): 1.03

With B28 as the binder, how does the OD450 nm read?
Its OD450 nm is 0.827 and 0.764 and 0.724.

What about the Ratio OD(Variant)/OD(WT) of the same binder?
Its Ratio OD(Variant)/OD(WT) is 1.06 and 0.975 and 0.924.

With B29 as the binder, how does the OD450 nm read?
Its OD450 nm is 0.585.

What about the Ratio OD(Variant)/OD(WT) of the same binder?
The Ratio OD(Variant)/OD(WT) was 1.12.
